# Results taken from US20210032299A1 (Eli Lilly, published 2021).
# Starred links: 1 amine or outer side, 2 acyl side, 3 side chain; linkers in the order of their positions; H or OH if unused. Non-standard residues stand in square brackets, D forms with d. Groups on a side chain read outwards from the residue. No end group written: not given here. *: point of attachment. C20 diacid = O=C(O)CCCCCCCCCCCCCCCCCCC(=O)*; γGlu = O=C(O)[C@H](CCC(=O)[*:2])N[*:1]; αMeF = C[C@](N)(Cc1ccccc1)C(=O)O; 4Pal = N[C@@H](Cc1ccncc1)C(=O)O; αMeL = CC(C)C[C@](C)(N)C(=O)O; AEEA = NCCOCCOCC(=O)O; Aib = CC(C)(N)C(=O)O
# T1: human glucose-dependent insulinotropic peptide receptor (human, UniProt P48546 22-466)
# T1 sequence (looked up): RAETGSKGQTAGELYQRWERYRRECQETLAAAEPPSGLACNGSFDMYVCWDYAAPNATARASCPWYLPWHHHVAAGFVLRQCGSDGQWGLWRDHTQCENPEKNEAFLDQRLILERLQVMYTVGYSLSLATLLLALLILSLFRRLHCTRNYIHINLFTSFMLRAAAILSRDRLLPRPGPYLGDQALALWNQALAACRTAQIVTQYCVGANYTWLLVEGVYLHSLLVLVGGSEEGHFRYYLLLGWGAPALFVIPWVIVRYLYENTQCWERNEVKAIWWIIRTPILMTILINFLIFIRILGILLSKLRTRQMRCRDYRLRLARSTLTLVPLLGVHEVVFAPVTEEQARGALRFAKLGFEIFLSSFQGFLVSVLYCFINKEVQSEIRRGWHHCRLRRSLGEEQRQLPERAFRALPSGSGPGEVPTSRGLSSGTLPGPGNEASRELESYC
# B1: Example 61 (peptide)
# peptide: Y[Aib]EGT[αMeF]ISDYSI[αMeL]LDKK([AEEA-AEEA-γGlu-C20 diacid])HQ[Aib]EFVE[4Pal]LLATGPSSGAPPPS-NH2
# modifications: N-terminus assumed
# SMILES: CC[C@H](C)[C@H](NC(=O)[C@H](CO)NC(=O)[C@H](Cc1ccc(O)cc1)NC(=O)[C@H](CC(=O)O)NC(=O)[C@H](CO)NC(=O)[C@@H](NC(=O)[C@](C)(Cc1ccccc1)NC(=O)[C@@H](NC(=O)CNC(=O)[C@H](CCC(=O)O)NC(=O)C(C)(C)NC(=O)[C@@H](N)Cc1ccc(O)cc1)[C@@H](C)O)[C@@H](C)CC)C(=O)N[C@@](C)(CC(C)C)C(=O)N[C@@H](CC(C)C)C(=O)N[C@@H](CC(=O)O)C(=O)N[C@@H](CCCCN)C(=O)N[C@@H](CCCCNC(=O)COCCOCCNC(=O)COCCOCCNC(=O)CC[C@H](NC(=O)CCCCCCCCCCCCCCCCCCC(=O)O)C(=O)O)C(=O)N[C@@H](Cc1c[nH]cn1)C(=O)N[C@@H](CCC(N)=O)C(=O)NC(C)(C)C(=O)N[C@@H](CCC(=O)O)C(=O)N[C@@H](Cc1ccccc1)C(=O)N[C@H](C(=O)N[C@@H](CCC(=O)O)C(=O)N[C@@H](Cc1ccncc1)C(=O)N[C@@H](CC(C)C)C(=O)N[C@@H](CC(C)C)C(=O)N[C@@H](C)C(=O)N[C@H](C(=O)NCC(=O)N1CCC[C@H]1C(=O)N[C@@H](CO)C(=O)N[C@@H](CO)C(=O)NCC(=O)N[C@@H](C)C(=O)N1CCC[C@H]1C(=O)N1CCC[C@H]1C(=O)N1CCC[C@H]1C(=O)N[C@@H](CO)C(N)=O)[C@@H](C)O)C(C)C
# B2: Example 62 (peptide)
# peptide: Y[Aib]EGT[αMeF]ISDYSI[αMeL]LDKK([AEEA-AEEA-γGlu-C20 diacid])HQ[Aib]EFVE[4Pal]LLAAGPSSGAPPPS-NH2
# modifications: N-terminus assumed
# SMILES: CC[C@H](C)[C@H](NC(=O)[C@H](CO)NC(=O)[C@H](Cc1ccc(O)cc1)NC(=O)[C@H](CC(=O)O)NC(=O)[C@H](CO)NC(=O)[C@@H](NC(=O)[C@](C)(Cc1ccccc1)NC(=O)[C@@H](NC(=O)CNC(=O)[C@H](CCC(=O)O)NC(=O)C(C)(C)NC(=O)[C@@H](N)Cc1ccc(O)cc1)[C@@H](C)O)[C@@H](C)CC)C(=O)N[C@@](C)(CC(C)C)C(=O)N[C@@H](CC(C)C)C(=O)N[C@@H](CC(=O)O)C(=O)N[C@@H](CCCCN)C(=O)N[C@@H](CCCCNC(=O)COCCOCCNC(=O)COCCOCCNC(=O)CC[C@H](NC(=O)CCCCCCCCCCCCCCCCCCC(=O)O)C(=O)O)C(=O)N[C@@H](Cc1c[nH]cn1)C(=O)N[C@@H](CCC(N)=O)C(=O)NC(C)(C)C(=O)N[C@@H](CCC(=O)O)C(=O)N[C@@H](Cc1ccccc1)C(=O)N[C@H](C(=O)N[C@@H](CCC(=O)O)C(=O)N[C@@H](Cc1ccncc1)C(=O)N[C@@H](CC(C)C)C(=O)N[C@@H](CC(C)C)C(=O)N[C@@H](C)C(=O)N[C@@H](C)C(=O)NCC(=O)N1CCC[C@H]1C(=O)N[C@@H](CO)C(=O)N[C@@H](CO)C(=O)NCC(=O)N[C@@H](C)C(=O)N1CCC[C@H]1C(=O)N1CCC[C@H]1C(=O)N1CCC[C@H]1C(=O)N[C@@H](CO)C(N)=O)C(C)C
# B3: Example 66 (peptide)
# peptide: Y[Aib]EGTFISDYSI[αMeL]LDKK([AEEA-AEEA-γGlu-C20 diacid])HQ[Aib]DFVEYLLETGPSSGAPPPS-NH2
# modifications: N-terminus assumed
# SMILES: CC[C@H](C)[C@H](NC(=O)[C@H](Cc1ccccc1)NC(=O)[C@@H](NC(=O)CNC(=O)[C@H](CCC(=O)O)NC(=O)C(C)(C)NC(=O)[C@@H](N)Cc1ccc(O)cc1)[C@@H](C)O)C(=O)N[C@@H](CO)C(=O)N[C@@H](CC(=O)O)C(=O)N[C@@H](Cc1ccc(O)cc1)C(=O)N[C@@H](CO)C(=O)N[C@H](C(=O)N[C@@](C)(CC(C)C)C(=O)N[C@@H](CC(C)C)C(=O)N[C@@H](CC(=O)O)C(=O)N[C@@H](CCCCN)C(=O)N[C@@H](CCCCNC(=O)COCCOCCNC(=O)COCCOCCNC(=O)CC[C@H](NC(=O)CCCCCCCCCCCCCCCCCCC(=O)O)C(=O)O)C(=O)N[C@@H](Cc1c[nH]cn1)C(=O)N[C@@H](CCC(N)=O)C(=O)NC(C)(C)C(=O)N[C@@H](CC(=O)O)C(=O)N[C@@H](Cc1ccccc1)C(=O)N[C@H](C(=O)N[C@@H](CCC(=O)O)C(=O)N[C@@H](Cc1ccc(O)cc1)C(=O)N[C@@H](CC(C)C)C(=O)N[C@@H](CC(C)C)C(=O)N[C@@H](CCC(=O)O)C(=O)N[C@H](C(=O)NCC(=O)N1CCC[C@H]1C(=O)N[C@@H](CO)C(=O)N[C@@H](CO)C(=O)NCC(=O)N[C@@H](C)C(=O)N1CCC[C@H]1C(=O)N1CCC[C@H]1C(=O)N1CCC[C@H]1C(=O)N[C@@H](CO)C(N)=O)[C@@H](C)O)C(C)C)[C@@H](C)CC
# B4: Example 65 (peptide)
# peptide: Y[Aib]EGTFISDYSI[αMeL]LDKK([AEEA-AEEA-γGlu-C20 diacid])HQ[Aib]EFVEYLLEAGPSSGAPPPS-NH2
# modifications: N-terminus assumed
# SMILES: CC[C@H](C)[C@H](NC(=O)[C@H](Cc1ccccc1)NC(=O)[C@@H](NC(=O)CNC(=O)[C@H](CCC(=O)O)NC(=O)C(C)(C)NC(=O)[C@@H](N)Cc1ccc(O)cc1)[C@@H](C)O)C(=O)N[C@@H](CO)C(=O)N[C@@H](CC(=O)O)C(=O)N[C@@H](Cc1ccc(O)cc1)C(=O)N[C@@H](CO)C(=O)N[C@H](C(=O)N[C@@](C)(CC(C)C)C(=O)N[C@@H](CC(C)C)C(=O)N[C@@H](CC(=O)O)C(=O)N[C@@H](CCCCN)C(=O)N[C@@H](CCCCNC(=O)COCCOCCNC(=O)COCCOCCNC(=O)CC[C@H](NC(=O)CCCCCCCCCCCCCCCCCCC(=O)O)C(=O)O)C(=O)N[C@@H](Cc1c[nH]cn1)C(=O)N[C@@H](CCC(N)=O)C(=O)NC(C)(C)C(=O)N[C@@H](CCC(=O)O)C(=O)N[C@@H](Cc1ccccc1)C(=O)N[C@H](C(=O)N[C@@H](CCC(=O)O)C(=O)N[C@@H](Cc1ccc(O)cc1)C(=O)N[C@@H](CC(C)C)C(=O)N[C@@H](CC(C)C)C(=O)N[C@@H](CCC(=O)O)C(=O)N[C@@H](C)C(=O)NCC(=O)N1CCC[C@H]1C(=O)N[C@@H](CO)C(=O)N[C@@H](CO)C(=O)NCC(=O)N[C@@H](C)C(=O)N1CCC[C@H]1C(=O)N1CCC[C@H]1C(=O)N1CCC[C@H]1C(=O)N[C@@H](CO)C(N)=O)C(C)C)[C@@H](C)CC
# B5: Example 64 (peptide)
# peptide: Y[Aib]EGTFISDYSI[αMeL]LDKK([AEEA-AEEA-γGlu-C20 diacid])HQ[Aib]EFVEYLLETGPSSGAPPPS-NH2
# modifications: N-terminus assumed
# SMILES: CC[C@H](C)[C@H](NC(=O)[C@H](Cc1ccccc1)NC(=O)[C@@H](NC(=O)CNC(=O)[C@H](CCC(=O)O)NC(=O)C(C)(C)NC(=O)[C@@H](N)Cc1ccc(O)cc1)[C@@H](C)O)C(=O)N[C@@H](CO)C(=O)N[C@@H](CC(=O)O)C(=O)N[C@@H](Cc1ccc(O)cc1)C(=O)N[C@@H](CO)C(=O)N[C@H](C(=O)N[C@@](C)(CC(C)C)C(=O)N[C@@H](CC(C)C)C(=O)N[C@@H](CC(=O)O)C(=O)N[C@@H](CCCCN)C(=O)N[C@@H](CCCCNC(=O)COCCOCCNC(=O)COCCOCCNC(=O)CC[C@H](NC(=O)CCCCCCCCCCCCCCCCCCC(=O)O)C(=O)O)C(=O)N[C@@H](Cc1c[nH]cn1)C(=O)N[C@@H](CCC(N)=O)C(=O)NC(C)(C)C(=O)N[C@@H](CCC(=O)O)C(=O)N[C@@H](Cc1ccccc1)C(=O)N[C@H](C(=O)N[C@@H](CCC(=O)O)C(=O)N[C@@H](Cc1ccc(O)cc1)C(=O)N[C@@H](CC(C)C)C(=O)N[C@@H](CC(C)C)C(=O)N[C@@H](CCC(=O)O)C(=O)N[C@H](C(=O)NCC(=O)N1CCC[C@H]1C(=O)N[C@@H](CO)C(=O)N[C@@H](CO)C(=O)NCC(=O)N[C@@H](C)C(=O)N1CCC[C@H]1C(=O)N1CCC[C@H]1C(=O)N1CCC[C@H]1C(=O)N[C@@H](CO)C(N)=O)[C@@H](C)O)C(C)C)[C@@H](C)CC
# B6: Example 63 (peptide)
# peptide: Y[Aib]EGTFISDYSI[αMeL]LDKK([AEEA-AEEA-γGlu-C20 diacid])HQ[Aib]EFVEYLLEQGPSSGAPPPS-NH2
# modifications: N-terminus assumed
# SMILES: CC[C@H](C)[C@H](NC(=O)[C@H](Cc1ccccc1)NC(=O)[C@@H](NC(=O)CNC(=O)[C@H](CCC(=O)O)NC(=O)C(C)(C)NC(=O)[C@@H](N)Cc1ccc(O)cc1)[C@@H](C)O)C(=O)N[C@@H](CO)C(=O)N[C@@H](CC(=O)O)C(=O)N[C@@H](Cc1ccc(O)cc1)C(=O)N[C@@H](CO)C(=O)N[C@H](C(=O)N[C@@](C)(CC(C)C)C(=O)N[C@@H](CC(C)C)C(=O)N[C@@H](CC(=O)O)C(=O)N[C@@H](CCCCN)C(=O)N[C@@H](CCCCNC(=O)COCCOCCNC(=O)COCCOCCNC(=O)CC[C@H](NC(=O)CCCCCCCCCCCCCCCCCCC(=O)O)C(=O)O)C(=O)N[C@@H](Cc1c[nH]cn1)C(=O)N[C@@H](CCC(N)=O)C(=O)NC(C)(C)C(=O)N[C@@H](CCC(=O)O)C(=O)N[C@@H](Cc1ccccc1)C(=O)N[C@H](C(=O)N[C@@H](CCC(=O)O)C(=O)N[C@@H](Cc1ccc(O)cc1)C(=O)N[C@@H](CC(C)C)C(=O)N[C@@H](CC(C)C)C(=O)N[C@@H](CCC(=O)O)C(=O)N[C@@H](CCC(N)=O)C(=O)NCC(=O)N1CCC[C@H]1C(=O)N[C@@H](CO)C(=O)N[C@@H](CO)C(=O)NCC(=O)N[C@@H](C)C(=O)N1CCC[C@H]1C(=O)N1CCC[C@H]1C(=O)N1CCC[C@H]1C(=O)N[C@@H](CO)C(N)=O)C(C)C)[C@@H](C)CC
# Molecular target: human glucagon receptor (human, UniProt P47871 26-477)
# Sequence (P47871 26-477): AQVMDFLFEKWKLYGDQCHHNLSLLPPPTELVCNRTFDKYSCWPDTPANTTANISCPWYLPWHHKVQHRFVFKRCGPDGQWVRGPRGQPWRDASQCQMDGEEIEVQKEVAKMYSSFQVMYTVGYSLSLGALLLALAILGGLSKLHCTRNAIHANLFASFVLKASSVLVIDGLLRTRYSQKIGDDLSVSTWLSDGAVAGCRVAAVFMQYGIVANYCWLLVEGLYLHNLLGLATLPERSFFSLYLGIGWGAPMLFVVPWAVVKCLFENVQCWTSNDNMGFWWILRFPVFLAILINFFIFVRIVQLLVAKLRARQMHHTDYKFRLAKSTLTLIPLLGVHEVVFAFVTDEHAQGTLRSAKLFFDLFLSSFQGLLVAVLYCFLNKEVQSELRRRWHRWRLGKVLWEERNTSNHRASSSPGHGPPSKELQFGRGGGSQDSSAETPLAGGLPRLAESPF
# Test: cell-based or functional assay
row,Binder,hGcgR cAMP Rel EC50 [nM]
1,B1,> 5000
2,B2,> 5000
3,B3,> 5000
4,B4,850
5,B5,3070
6,B6,1170

# Molecular target: T1, human glucose-dependent insulinotropic …
# Test: cell-based or functional assay
row,Binder,hGIPR cAMP Rel EC50 [nM]
1,B1,0.0167
2,B2,0.0116
3,B3,0.0786
4,B4,0.0346
5,B5,0.0448
6,B6,0.0398

# Molecular target: human GLP-1 receptor (human, UniProt P43220 24-463)
# Test: cell-based or functional assay
row,Binder,hGLP1R cAMP Rel EC50 [nM]
1,B1,192
2,B2,58.2
3,B3,> 5000
4,B4,> 5000
5,B5,> 5000
6,B6,> 5000
